Results: patent US20240002495A1 (MITSUBISHI TANABE PHARMA, published 2024)
Where no end group is shown, it is not given here.

How the values were obtained:
[1] = molecular target: T1, recombinant human IL-33 protein (residues 112 to 270) (ILC0701, ATGen Co. Ltd) (human, UniProt O95760 112-270); assay: KinExA in PBS, neutral-purified IgG
T1 construct: bought protein
T1 sequence: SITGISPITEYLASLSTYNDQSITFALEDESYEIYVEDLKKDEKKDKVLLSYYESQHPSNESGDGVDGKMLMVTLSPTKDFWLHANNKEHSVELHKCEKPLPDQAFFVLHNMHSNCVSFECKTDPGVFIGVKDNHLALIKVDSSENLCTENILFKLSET
Method: Each test antibody (IgG) (“antibody (IgG)” indicates an antibody having a molecular form of IgG; hereinafter, the same representation is used) was analyzed to confirm the affinity with the human IL-33 protein by measuring dissociation constant (Kd) between each test antibody and the human IL-33 protein in PBS by kinetic exclusion assay (KinExA) (KinExA3200, available from Sapidyne Instruments, Inc.). Mixture samples of a test antibody and a human IL-33 protein (ILC0701, available from ATGen Co. Ltd) were prepared. The human IL-33 protein was titrated to a constant concentration of test antibody (final concentration: several tens of pM to several hundreds of pM) over a wide concentration range of the human IL-33 protein (so that it covered the concentrations of the human IL-33 protein resulting from 12-step serial doubling dilutions, i.e. one- to 2048-fold, with the upper limit of final concentration set to several nM to several tens of nM). The mixture samples were incubated at a room temperature until the antigen-antibody reaction reached equilibrium. After the reaction reached equilibrium, the percentage of free anti-IL-33 antibody in each sample was analyzed using KinExA3200. The values of Kd were calculated by fitting the plot of percentages of anti-IL-33 antibody not bound to the human IL-33 protein (vertical axis) and concentrations of antigen (horizontal axis) to a theoretical formula, using a KinExA data analysis program (KinExA Pro Software v3.5.3, available from Sapidyne Instruments, Inc.). Beads for capturing the anti-IL-33 antibody were prepared by suspending 50 mg of Azlactone beads (Sapidyne) in 1 mL of coating solution (10 μg/mL human IL-33 protein (ILC0701, available from ATGen Co. Ltd), 50 mM sodium carbonate at pH of 9.6) and incubating the solution at a room temperature for one hour. The antibody for detection used was anti-human F(ab)′2-DyLight649 (Jackson, 309-495-006).

[2] = molecular target: T1, recombinant human IL-33 protein …; assay: cell-based or functional assay
[3] = molecular target: T1, recombinant human IL-33 protein …; assay: KinExA in PBS, alkaline-purified IgG
Method: (§1) Mixture samples of a test antibody and a human IL-33 protein (ILC0701, available from ATGen Co. Ltd) were prepared. The human IL-33 protein was titrated to a constant concentration of test antibody (final concentration: several tens of pM to several hundreds of pM) over a wide concentration range of the human IL-33 protein (so that it covered the concentrations of the human IL-33 protein resulting from 12-step serial doubling dilutions, i.e. one- to 2048-fold, with the upper limit of final concentration set to several nM to several tens of nM). The mixture samples were incubated at a room temperature until the antigen-antibody reaction reached equilibrium. After the reaction reached equilibrium, the percentage of free anti-IL-33 antibody in each sample was analyzed using KinExA3200. The values of Kd were calculated by fitting the plot of percentages of anti-IL-33 antibody not bound to the human IL-33 protein (vertical axis) and concentrations of antigen (horizontal axis) to a theoretical formula, using a KinExA data analysis program (KinExA Pro Software v3.5.3, available from Sapidyne Instruments, Inc.). Beads for capturing the anti-IL-33 antibody were prepared by suspending 50 mg of Azlactone beads (Sapidyne) in 1 mL of coating solution (10 μg/mL human IL-33 protein (ILC0701, available from ATGen Co. Ltd), 50 mM sodium carbonate at pH of 9.6) and incubating the solution at a room temperature for one hour. The antibody for detection used was anti-human F(ab)′2-DyLight649 (Jackson, 309-495-006).

[4] = molecular target: T1, recombinant human IL-33 protein …; assay: SPR (Biacore T200), human IL-33 (ILC0701) immobilized on CM5, Calibration Free Concentration Analysis of the preserved antibody against a control-preserved sample
Method: Each alkaline-purified antibody was dissolved in a citrate buffer (50 mM citric acid; 150 mM NaCl (pH: 6.3)) at a concentration of about 10 mg/mL, and was preserved at a temperature of 40° C. for four weeks, to evaluate the preservation stability of each test antibody (IgG). For evaluation of the monomer purity of each antibody after the preservation, monomer purity was measured by size exclusion chromatography analysis (SEC) and microchip capillary SDS electrophoresis (mCE-SDS), and antigen-binding activity was measured by surface plasmon resonance.
In order to confirm the presence of the antigen-binding ability after the preservation, the antigen-binding activity was measured with a surface plasmon resonance system, Biacore T200 (available from GE Healthcare). A human IL-33 protein (ILC0701, available from ATGen Co. Ltd) was immobilized onto a Sensor Chip CM5 (GE Healthcare) (the amount of immobilized protein was about 3000 to 6000 RU) with Amine Coupling Kit (GE Healthcare). Each preserved antibody solution was then diluted to 10-fold with a citric buffer (50 mM citric acid, 150 mM NaCl (pH: 6.3)), and the resulting solution was analyzed to measure the total protein concentration in the solution, using a microvolume spectrophotometer, Astragene II (Astranet Systems, Ltd.) (protein concentration: about 1 mg/mL). The antibody solution after the measurement of the total protein concentration was diluted to 1000-fold with HBS-EP buffer (10 mM HEPES, 150 mM NaCl, 3 mM EDTA, 0.05% (v/v) Surfactant P20 (at pH of 7.4)). The analyte was thereby prepared. The measurement temperature was 25° C. Each analyte was added for 36 seconds at two flow rates of 5 μL/min and 100 μL/min to obtain sensorgrams of the association phase. The sensorgrams were then analyzed by Calibration Free Concentration Analysis using a data analysis program (GE Healthcare, Biacore T200 Evaluation Software v1.0) to determine the concentration of the antibody having antigen-binding activity. As control, each test antibody after preservation at a temperature of 4° C. for four weeks was also analyzed to confirm the antigen-binding activity, to calculate the ratio of antigen-binding activity of each test antibody after the preservation at a temperature of 40° C. for four weeks.

[5] = molecular target: T2, DQSITFALEDESYEIYVEDL (PEP14) (human, not fully specified); assay: KinExA, alkaline-purified IgG, peptide
T2 peptide: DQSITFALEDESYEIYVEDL
Method: (§2) The mixture samples were incubated at a room temperature until the antigen-antibody reaction reached equilibrium. After the reaction reached equilibrium, the percentage of free anti-IL-33 antibody in each sample was analyzed using KinExA3200. The values of Kd were calculated by fitting the plot of percentages of anti-IL-33 antibody not bound to the human IL-33 protein (vertical axis) and concentrations of antigen (horizontal axis) to a theoretical formula, using a KinExA data analysis program (KinExA Pro Software v3.5.3, available from Sapidyne Instruments, Inc.). Beads for capturing the anti-IL-33 antibody were prepared by suspending 50 mg of Azlactone beads (Sapidyne) in 1 mL of coating solution (10 μg/mL human IL-33 protein (ILC0701, available from ATGen Co. Ltd), 50 mM sodium carbonate at pH of 9.6) and incubating the solution at a room temperature for one hour. The antibody for detection used was anti-human F(ab)′2-DyLight649 (Jackson, 309-495-006).
(§3) The anti-IL-33 monoclonal antibodies A10-1C04 and A25-3H04 bound to the epitope PEP14 as described in the Example 1. […] These peptides were synthesized, and the affinity with the alkali-purified antibodies was calculated as Kd by the KinExA experiment as in Example 9 (Table 14).

EDESYEIYV = molecular target: T3, EDESYEIYV (human, not fully specified (N-terminus)); assay: KinExA, alkaline-purified IgG, peptide
T3 construct: synthetic peptide
T3 peptide: EDESYEIYV
Method: as §2, §3

LEDESYEIYV = molecular target: T4, LEDESYEIYV (human, not fully specified (N-terminus)); assay: KinExA, alkaline-purified IgG, peptide
T4 construct: synthetic peptide
T4 peptide: LEDESYEIYV
Method: as §2, §3

[6] = molecular target: T5, full-length human IL-33 protein (human, UniProt O95760 1-270); assay: KinExA in PBS, alkaline-purified IgG
T5 construct: also called Human IL-33 (Full-Length)
T5 sequence: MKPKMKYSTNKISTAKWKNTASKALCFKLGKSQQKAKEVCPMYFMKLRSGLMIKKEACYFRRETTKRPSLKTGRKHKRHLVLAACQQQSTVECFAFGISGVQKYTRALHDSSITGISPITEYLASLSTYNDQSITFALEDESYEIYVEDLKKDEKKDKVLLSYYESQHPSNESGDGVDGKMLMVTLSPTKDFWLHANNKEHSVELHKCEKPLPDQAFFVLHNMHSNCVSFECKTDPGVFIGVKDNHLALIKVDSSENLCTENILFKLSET
Method: as §1

| Binder | Kd [1] | IC50 of inhibition of IL-6 production by HUVEC (alkaline-purified IgG, human IL-33 100 ng/mL) [2] | inhibition of IFN-γ production by human PBMC (alkaline-purified IgG 10 ug/mL, IL-33 10 ng/mL, IL-12 10 ng/mL) [2] | inhibition of production of IL-5 and IL-13 by KU-812 cells (alkaline-purified IgG 1 ug/mL; IL-33 3 ng/mL with IL-3 and C5a) [2] | percentage of inhibition (%) of IL-6 production by HUVEC (neutral-purified IgG 1 ug/mL, IL-33 100 ng/mL) [2] | Kd [3] | % Active IgG (antigen binding activity after preservation at 40 C for 4 W) [4] | Kd [5] | Kd (EDESYEIYV) | Kd (LEDESYEIYV) | Kd [6] |
| --- | --- | --- | --- | --- | --- | --- | --- | --- | --- | --- | --- |
| A23-1A05 (IgG) (antibody, V domains shown, tested as neutral-purified and as alkaline-purified antibody; also called V8; IGN8) VH: EVQLLESGGGLVQPGGSLRLSCAASGFTFSNYYMHWVRQAPGKGLEWVSSISARSRYHYYADSVKGRFTISRDNSKNTLYLQMNSLRAEDTAVYYCARLATRHNAFDIWGQGTLVTVSS VL: QSVLTQPPSASGTPGQRVTISCSGSSSNIGNNAVSWYQQLPGTAPKLLIYASNMRVIGVPDRFSGSKSGTSASLAISGLRSEDEADYYCGAWDDSQKALVFGGGTKLTVL | 231 pM | 0.27 µg/mL | 97.5% | ≥ 50% | 74% | 195 pM | 102% |  |  |  |  |
| A25-2C02 (IgG) (antibody, V domains shown, tested as neutral-purified and as alkaline-purified antibody; also called V15; IGN15) VH: EVQLLESGGGLVQPGGSLRLSCAASGFTFSNYYMHWVRQAPGKGLEWVSSISARSSYIYYADSVKGRFTISRDNSKNTLYLQMNSLRAEDTAVYYCARLATRNNAFDIWGQGTLVTVSS VL: QSVLTQPPSASGTPGQRVTISCSGSSSNIGRNAVNWYQQLPGTAPKLLIYASNMRVSGVPDRFSGSKSGTSASLAISGLRSEDEADYYCWAWDDSQKVGVFGGGTKLTVL | 0.72 pM | 0.19 µg/mL | 98.8% | ≥ 50% | 96% | 0.7 pM | 100% |  |  |  |  |

Continued, values first:

| Kd [1] | IC50 of inhibition of IL-6 production by HUVEC (alkaline-purified IgG, human IL-33 100 ng/mL) [2] | inhibition of IFN-γ production by human PBMC (alkaline-purified IgG 10 ug/mL, IL-33 10 ng/mL, IL-12 10 ng/mL) [2] | inhibition of production of IL-5 and IL-13 by KU-812 cells (alkaline-purified IgG 1 ug/mL; IL-33 3 ng/mL with IL-3 and C5a) [2] | percentage of inhibition (%) of IL-6 production by HUVEC (neutral-purified IgG 1 ug/mL, IL-33 100 ng/mL) [2] | Kd [3] | % Active IgG (antigen binding activity after preservation at 40 C for 4 W) [4] | Kd [5] | Kd (EDESYEIYV) | Kd (LEDESYEIYV) | Kd [6] | Binder |
| --- | --- | --- | --- | --- | --- | --- | --- | --- | --- | --- | --- |
| 5.38 pM | 0.21 µg/mL | 97.9% | ≥ 50% | 97% | 7.7 pM | 102% | 1.5 pM | 301000 pM | 11000 pM |  | A25-3H04 (IgG) (antibody, V domains shown, tested as neutral-purified and as alkaline-purified antibody; also called V17; IGN17) VH: EVQLLESGGGLVQPGGSLRLSCAASGFTFSRYYMHWVRQAPGKGLEWVSSISAQSSHIYYADSVEGRFTISRDNSKNTLYLQMNSLRAEDTAVYYCARLATRQNAFDIWGQGTLVTVSS VL: QSVLTQPPSASGTPGQRVTISCSGSSSNIGRNAVNWYQQLPGTAPKLLIYASNMRRSGVPDRFSGSKSGTSASLAISGLRSEDEADYYCSAWDDSQKVVVFGGGTKLTVL |
| 10.8 pM | 0.23 µg/mL | 98.2% | ≥ 50% | 96% | 5.3 pM | 101% |  |  |  | 10.4 pM | A26-1F02 (IgG) (antibody, V domains shown, tested as neutral-purified and as alkaline-purified antibody; also called V18; IGN18) VH: EVQLLESGGGLVQPGGSLRLSCAASGFTFSNYYMHWVRQAPGKGLEWVSSISARSSYLYYADSVKGRFTISRDNSKNTLYLQMNSLRAEDTAVYYCARLATRHVAFDIWGQGTLVTVSS VL: QSVLTQPPSASGTPGQRVTISCSGSSSNIGNNAVNWYQQLPGTAPKLLIYASNMRRPGVPDRFSGSKSGTSASLAISGLRSEDEADYYCEAWDDSQKAVVFGGGTKLTVL |
